Measurements reported in patent US12441790B2, “Binding proteins to the human thrombin receptor, PAR4” (MONASH UNIVERSITY, priority 2017, dated 2025).
Entries after “also recorded” stand apart in the source; their conditions may differ.

How the values were obtained:
[1] = tested on: PAR4 peptide vs PAR1, PAR2 and PAR3 peptides; assay: ELISA specificity screening, PAR4 peptide vs PAR1, 2 or 3 peptide; format: binding, human; conditions: hybridoma supernatant
Protocol: 96-well ELISA plates were coated with 50 μl of antigen diluted to a concentration of 4 μg/ml in coating buffer (0.1M Sodium Hydrogen Carbonate (NaHCO3) (Merck, #1.06329.0500)). Plates were incubated overnight at 4° C.
Wells were then washed with an automated plate washer (300 μl 1×PBS, 3 times). The wells were blocked with 200 μl of blocking buffer (3% BSA/1×PBS (BSA: (Sigma, #1001647742)) for 1 hour at room temperature followed by washing as above.
50 μl of undiluted hybridoma cell culture supernatant was added into appropriate wells and incubated at room temperature for 1 hour followed by washing as above. […] Wells were washed as above. A set of substrate tablets (1×silver, 1×gold) into 20 ml of ddH20 by shaking vigorously on the thermomixer for 6 mins at room temperature. 50 μl of substrate ([…]™ p-Nitrophenyl phosphate Tablets (Sigma-Aldrich, N2770-50SET)) was added into each well and incubated for 20-25 mins at room temperature. […] Absorbance was read at 405 nm immediately after adding STOP solution with the ELISA reader, using the ‘RdrOle4’ software.
Hybridoma supernatants were initially screened for binding to the immunising PAR4 peptide sequence ([…]-KLH (SEQ ID NO: 4)) by antigen microarray, with binding determined by fluorescence intensity signal over background (signal from medium alone). […]

[2] = biological target: T1, hPAR4-biotinylated peptide (Homo sapiens, UniProt Q96RI0); assay: SA chip biotin peptide SPR (Biacore, streptavidin capture); format: binding
T1 construct: host or cells: synthetic peptide
T1 sequence (Q96RI0 with tags, fused parts or gaps limits assumed): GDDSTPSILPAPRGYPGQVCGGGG
Protocol: Biacore analysis was performed on a Biacore T200 using two different methods either an anti-mouse Fc capture approach or using a similar method as described above using the ProteoOn system.
A series S sensor chip SA was conditioned using the manufacturers recommended protocol and immobilised with 1 ug/ml hPAR4-biotinylated peptide on FC2 and hPAR1-biotinylated peptide as a control onto FC1. […] Blank injections of buffer alone were also performed. All injections were performed in duplicate and in a random order. After each capture/injection/dissociation cycle the chip was regenerated with a 30 second injection of 0.1M Glycine pH2.0.
For the mAb capture method low levels of ligand mAb and analyte hPAR4 were used in an attempt to produce a 1:1 binding interaction, this method has been used successfully to measure kinetics and affinity KD's (Kamat V and Rafique A (2017) Analytical Biochemistry 530:75-86), despite using a whole IgG.
The kinetics of the binding interaction between the mAbs and hPAR4 was measured using Surface Plasmon Resonance (SPR; Biacore) by two different methods: 1. Anti-mouse Fc mAb capture method and 2. Streptavidin (SA) chip to capture biotinylated peptide. The ka(on) rate and kd(off) rates and KD were measured and fitted to a Langmuir model using the Biacore evaluation software.

human platelets = assay: Thrombin-induced platelet aggregation assay; format: cell-based
Protocol: Platelet aggregation was measured by light transmission aggregometry in a 96-well plate format. Human isolated platelets (2×10^8/ml) were pre-treated for 10 mins at 37° C. with dimethylsulfoxide (DMSO) (1% v/v), the PAR1 antagonist vorapaxar (90 nM), the anti-PAR4 antibody 5RC3 (20-100 μg/ml), or a combination of vorapaxar and 5RC3. Platelets were treated with one of thrombin (0.1 U/ml) and aggregation was analysed at 37° C. in a FLUOstar OPTIMA plate reader (BMG Labtech) using a 595 nm excitation filter, for a period of 50 min (10 read cycles with 5 min double orbital shake period between each read). Optical density was normalised against the blank (maximum) and unstimulated platelets (minimum) and expressed as % maximum.
Human isolated platelets of different PAR4 variants were assessed for their responses to PAR4 agonists.
The binding of five anti-PAR4 monoclonal antibodies to human platelets was examined by flow cytometry.

human isolated platelets = assay: Platelet phosphatidylserine exposure (annexin V binding); format: cell-based; conditions: pre-treatment 5 min; regardless of donor genotype
Protocol: Platelet surface phosphatidylserine (PS) exposure was determined by measuring annexin V binding. Human isolated platelets (5×10^7/ml) were pre-treated with 5A.RC3 (5 mins) at the concentrations indicated and were incubated with Alexa Fluor 488-conjugated annexin-V (1:100) prior to stimulation with thrombin. After stimulation, platelets were resuspended in modified Tyrode's buffer for flow cytometry analysis (FACSCalibur, BD Biosciences).
Pro-coagulant activity in isolated human platelets was examined by measuring phosphatidylserine (PS) exposure in response to stimulation with PAR4-AP or thrombin (1 U/ml) The percentage of annexin V positive cells was measured. The platelets were pre-incubated with 5A.RC3 for 5 mins. […] The 10 min (final data point) is shown for simplicity.

B1: 5A.RC3: anti-PAR4 monoclonal antibody, IgG2a/K, VH SEQ ID NO:11 and VL SEQ ID NO:12 (antibody, V domains shown)
VH: QVQLVESGGGVVQPGRSLRLSCAASGFTLSNYGMHWVRQAPGKGLEWVSVIWYDGSNKHYADSVKGRFTISRDNSKNTLYLQMNSLRAEDTAVYYCARESIVEVLPPFDYWGQGTLVTVSS
VL: KIVLTQSPGTLSLSPGERVTLSCRASQRVRNNYLAWFQQKPGQAPRLFIYGASSRATGIPDRFSGSGSGTDFIFTISRLEPEDFAVYYCQQYGNSYTFGQGTKLEIK
modifications: VH of 5A.RC3; VL of 5A.RC3
[1]
  selectivity to human PAR4 peptide over PAR1, PAR2 and PAR3: 16 fold
[2]
  ka: 1.32e+06 M⁻¹ s⁻¹
  kd: 0.000417 s⁻¹
Human platelets; 0.1 U/ml thrombin
  inhibition of platelet aggregation at the highest concentration tested: Near maximal inhibition
Human platelets; in the presence of a PAR1 antagonist, genotypes TT, AT, AA
  inhibition of thrombin-induced platelet aggregation: inhibited in a dose dependent manner
Human isolated platelets
  inhibition of thrombin-induced phosphatidylserine exposure: dose-dependently inhibited thrombin-induced phosphatidylserine exposure; also recorded: inhibited thrombin-induced phosphatidylserine exposure in a dose dependent manner
